{
  "source": "patent US12564623B2",
  "about": "“Methods and compositions for treating cancer” (The University of Chicago, priority 2017, dated 2026)",
  "molecules": {"B1": {"name": "neutrophil elastase (protein, listed as Homo sapiens)", "chain": "MTLGRRLACLFLACVLPALLLGGTALASEIVGGRRARPHAWPFMVSLQLRGGHFCGATLIAPNFVMSAAHCVANVNVRAVRVVLGAHNLSRREPTRQVFAVQRIFENGYDPVNLLNDIVILQLNGSATINANVQVAQLPAQGRRLGNGVQCLAMGWGLLGRNRGIASVLQELNVTVVTSLCRRSNVCTLVRGRQAGVCFGDSGSPLVCNGLIHGIASFVRGGCASGLYPDAFAPVAQFVNWIDSIIQRSEDNPCPHPRDPDPASRTH", "notes": "purified native ELANE"}},
  "key": {"[1]": {"test_system": "Human or murine cancer cells", "experiment": "Cancer cell viability and apoptosis (Calcein AM, Caspase 3/7, Annexin V)", "type": "cell-based", "details": "50 nM; 24 hrs viability, 6 hrs apoptosis", "method": "(§1) Human PMN'S broadly and selectively kill cancer cells. Human peripheral blood neutrophils (PMN) were isolated from healthy donors and incubated in serum-free DMEM to collect their secreted factors (PMN-media). (A-B) Human or murine cancer cells (A) or healthy cells (b) were incubated with PMN media or control serum-free DMEM (Ctrl media) for 24 hours. Cell viability was assessed by Calcein AM staining. (C) Human or murine cancer cells were treated with PMN media or Ctrl media for 6 hours. Caspase 3/7 activity was examined by a luminescence activity assay, while cell surface Annexin V staining was assessed by flow cytometry. […] (FIG. 1).\n(§2) (FIG. 6A) Cancer cells or healthy cells were treated with 50 nM purified native ELANE or control DMEM media (Ctrl) media for 24 hrs, and cell viability was assessed by Calcein AM staining. (FIG. 6B) Cancer cells were treated with 50 nM ELANE or Ctrl media for 6 hrs, and apoptosis was assessed by Caspase 3/7 luminesce activity assay or cell surface Annexin V staining by flow cytometry. *, p<0.05, Student's t-test."}, "healthy cells": {"test_system": "healthy cells", "experiment": "Healthy cell viability, Calcein AM", "type": "cell-based", "details": "50 nM, 24 hrs", "method": "as §1, §2"}, "Healthy non-cancer cells": {"test_system": "Healthy non-cancer cells", "experiment": "Killing program signaling in non-cancer cells", "type": "cell-based, Human and mouse", "details": "50 nM", "method": "(FIG. 11A) Healthy non-cancer cells were treated with ELANE (50 nM) for 4 hrs, and phosphorylated and total ERK, NFKB, and JNK were quantified by immunoblotting. Immunoblots for BMDMs are shown as an example. (FIG. 11B) Cells were treated with various doses of ELANE for 1 hr and mitochondrial ROS was measured by flow cytometry using CM-H2DCFDA dye. (FIG. 11C) Cells were treated with ELANE (50 nM) for 8 hrs, and full length and cleaved CASP3 (c-CASP3) and cleaved PARP (c-PARP) were quantified by immnoblotting. Immunoblots for BMDMs are shown as an example.\nThe ELANE-induced killing program is not observed in non-cancer cells. Human and mouse non-cancer cells were treated with ELANE and signaling pathways associated with cancer cell death were assessed. Cells were treated with ELANE (50 nM) for 4 hrs, and phosphorylated and total ERK, NFKB, and JNK were quantified by western blotting. Cells were treated with various doses of ELANE for 1 hr and mitochondrial ROS was measured by flow cytometry using CM-H2DCFDA dye. Cells were treated with ELANE (50 nM) for 8 hrs, and full length and cleaved CASP3 and PARP were quantified by western blotting."}, "[2]": {"test_system": "MDA-MB-231, A549, MEL888, M1, 4195, E0771, LLC1, B16F10 tumors", "experiment": "Tumor growth in xenograft, PDX and syngeneic models", "type": "in vivo, mice", "details": "11.6 μg intratumorally once/day for 5 days", "method": "MDA-MB-231, A549, or MEL888 cells (xenograft model) were injected into athymic nude mice; M1 or 4195 tumors (TNBC PDX models) were propagated in SCID mice; and E0771, LLC1, or B16F10 cells (syngeneic models) were injected into C57BL/6 mice. Once tumors reached ˜100 mm^3, ELANE (11.6 μg), or PMSF-ELANE (11.6 μg) were delivered intratumorally once/day for 5 days. n=8-15 mice/group. Tumor volume was assessed by calipers. Kaplan-Meier curve was plotted and the logrank test (Mentel-Cox method) was used for mouse survival analysis. Day 0 refers to the first treatment day. End point of survival is defined as tumor volume >1000 mm^3. (FIG. 15)"}, "E0771 cancer cells": {"test_system": "E0771 cancer cells", "experiment": "Abscopal effect, bilateral E0771 tumors", "type": "in vivo, C57BL/6 mice", "method": "(FIG. 19A) E0771 cancer cells were injected into left (0.5 million cells) and right (0.4 million cells) mammary fat pad of C57BL/6 mice. Once tumors on the left side reached ˜100 mm^3, ELANE (11.6 μg) or PMSF-inactivated ELANE (PMSF-ELANE) were injected intra-tumorally into the left tumor once/day for 5 days. n=10 mice/group. No action was performed on the right side of the tumor (abscopal side). Tumor volume on both sides were measured by calipers. (FIG. 19B) To eliminate the possibility that the abscopal effect was due to spillover of ELANE from the left to the right tumor, E0771 cancer cells were injected only into the left mammary fat pad of C57BL/6 mice, and mice were treated daily with ELANE (11.6 μg) or PMSF-ELANE into the right mammary fat pad. Tumor volume was measured by calipers."}, "human blood Tcells": {"test_system": "human blood Tcells", "experiment": "Apoptosis of human blood T cells in vitro", "type": "cell-based", "method": "The efficiency by which these proteases cleaved CD95 was well correlated with their ability to kill cancer cells. Thus, targeting CD95 for degradation offers three important advantages over the FASL and siRNA/shRNA approaches described above. First, unlike the resistance reported with FASL, the inventors have shown that cancer cells are incapable of becoming resistant to this degradative pathway in vitro and in vivo. […] In fact, when tumor bearing mice were treated with ELANE, tumor and splenic T-cells numbers were elevated."}},
  "data": [
    {"molecule": "B1", "values": [
      {"measurement": "cancer cell killing and apoptosis", "setting": "[1]", "value": "selectively kill cancer cells by inducing apoptosis"},
      {"measurement": "healthy cell viability", "setting": "healthy cells", "value": "does not kill normal healthy cells"},
      {"measurement": "killing program in healthy non-cancer cells", "setting": "Healthy non-cancer cells", "value": "does not induce a robust killing program in healthy non-cancer cells"},
      {"measurement": "tumor growth", "setting": "[2]", "value": "attenuates tumor growth in many cancer models"},
      {"measurement": "tumor growth after injection into contralateral non-tumor bearing mammary fat pad", "setting": "E0771 cancer cells; 11.6 μg daily", "value": "does not lower tumor growth"},
      {"measurement": "abscopal effect", "setting": "E0771 cancer cells; 11.6 μg into left tumor once/day for 5 days", "value": "induces an abscopal effect"},
      {"measurement": "apoptosis of human blood T cells", "setting": "human blood Tcells", "value": "did not induce apoptosis in vitro"}
    ]}
  ]
}
